Biological target: the molecule itself
Assay: oligomer bands on immunoblot of immunoprecipitated protein (reducing SDS-PAGE); quadriceps lysates (50 mM Tris, 150 mM NaCl, 1% NP-40, pH 7.4) of hSSPN-TG, mSSPN-TG, WT and SSPN-null mice immunoprecipitated with anti-SSPN monoclonal antibodies on protein A/G PLUS-agarose; eluates resolved by SDS-PAGE under reducing conditions and blotted with E2 or 10B8

Protein | stoichiometry N
mouse sarcospan (mSSPN) (natural protein, UniProt Q62147 1-216, looked up, sarcospan, mouse, GenBank U02487; 25-kDa protein with four transmembrane domains; seen as monomer and as a dimer band on reducing SDS-PAGE of immunoprecipitates; also called mouse SSPN; murine SSPN; source: endogenous (wild type) or transgenic overexpression (mSSPN-TG, Ln28), mouse quadriceps muscle lysate) MGRKPSPRAQELPEEEARTCCGCRFPLLLALLQLALGIAVTVLGFLMASISPSLLVRDTPFWAGSIVCVVAYLGLFMLCVSYQVDERTCVQFSMKVFYFLLSALGLMVCMLAVAFAAHHYSLLAQFTCETSLDSCQCKLPSSEPLSRAFVYRDVTDCTSVTGTFKLFLIIQMVLNLVCGLVCLLACFVMWKHRYQVFYVGVGLRSLMASDGQLPKA | 2
human sarcospan (hSSPN) (natural protein, UniProt Q14714 1-243, looked up, sarcospan, human, GenBank AF016028; hSSPN-TG muscle also holds endogenous mouse SSPN; also called human SSPN; source: transgenic overexpression in mouse skeletal muscle (hSSPN-TG, Ln3), quadriceps muscle lysate) MGKNKQPRGQQRQGGPPAADAAGPDDMEPKKGTGAPKECGEEEPRTCCGCRFPLLLALLQLALGIAVTVVGFLMASISSSLLVRDTPFWAGIIVCLVAYLGLFMLCVSYQVDERTCIQFSMKLLYFLLSALGLTVCVLAVAFAAHHYSQLTQFTCETTLDSCQCKLPSSEPLSRTFVYRDVTDCTSVTGTFKLFLLIQMILNLVCGLVCLLACFVMWKHRYQVFYVGVRICSLTASEGPQQKI | 2
